This is an account of results in patent US6291235.

Assay [1] deals with rabbit muscle actin (rabbit) (UniProt P68135). In words: surface plasmon resonance (BIAcore), whole A33 immobilised, 0.3 µg rabbit muscle actin injected. For orientation: Surface plasmon resonance follows binding to a sensor surface in real time, without labels.
For assay [2] the target is unchanged. In words: surface plasmon resonance (BIAcore), F(ab)'2 immobilised, 0.3 µg rabbit muscle actin injected.
Assay [3] has as its target A33 antigen on the surface of human colon cancer cells (human). The assay is described as follows: rosetting assay on NCI-H508 cells.
Assay [4] shares this target. In words: rosetting assay on SNC-2B cells.
For assay [5] the target is unchanged. In words: rosetting assay on SW403 cells.
The target is the same in assay [6]. The assay is described as follows: rosetting assay on LOVO cells.
Assay [7] shares this target. In words: rosetting assay on SK-CO-19 cells.
Assay [8] has the same target. The assay is described as follows: rosetting assay on SK-CO-17 cells.
Assay [9] shares this target. In words: rosetting assay on LIM 1215 cells.
Assay [10] shares this target. The assay is described as follows: rosetting assay on LS 180 cells.
Assay [11] shares this target. The assay is described as follows: rosetting assay on ASPC-1 (pancreatic) cells.
For assay [12] the target is unchanged. The assay is described as follows: rosetting assay on LS 174T cells.
Assay [13] shares this target. In words: rosetting assay on SW1222 cells.

“whole A33 (A33 IgG) immobilised on the biosensor surface (antibody)” had a signal at the end of the injection pulse (RU) in assay [1] of 247 RU.
As for “F(ab)'2 fragment of A33 humanized monoclonal antibody”, the signal at the end of the injection pulse (RU) in [2] was determined as 4 RU.
Take “monoclonal antibody A33 (mAb A33), murine immunoglobulin, isotype IgG2a, secreted by hybridoma ATCC No. HB 8779”: the Rosetting A. Titer in assay [3] came to 4096; in assay [4], 4096; in [5] it was 8192; in [6], 4096; in assay [7], 8192; in [8], 512. The Rosetting A. Titer in assay [9] amounted to 8192; in assay [10], 2048; in assay [11], 8192; in assay [12] it was 4096; in assay [13], 4096.
